According to patent US20240043568A1:
pEC50, pKd: −log10 of the molar value. Blank lines part the entries; values can stand above or below the substance they belong to.

Assays:
[1] = target: recombinant cynomolgus monkey GPC3 full-length protein (cynomolgus monkey); test: ELISA on coated recombinant cynomolgus monkey GPC3 protein, OD450 [panel Recombinant cynomolgus monkey GPC3 protein]
[2] = target: human GPC3 on cells (human) (UniProt P51654); test: flow cytometry on human GPC3-CHO stably-transfected cells, MFI
[3] = target: recombinant human GPC3 protein (human) (UniProt P51654); test: ELISA, coated antigen 1 µg/ml
[4] = target: recombinant cynomolgus monkey GPC3 full-length protein (cynomolgus monkey); test: ELISA, coated antigen 1 µg/ml
[5] = target: recombinant GST-human GPC3 stem protein (human); test: ELISA, coated antigen 1 µg/ml
[6] = target: recombinant human GPC3 protein (human) (UniProt P51654); test: BLI (Octet), antibody on Protein A probe
[7] = target: recombinant human GPC3 protein (human) (UniProt P51654); test: ELISA on coated recombinant human GPC3 protein, OD450 [panel Recombinant human GPC3 protein]
[8] = target: human GPC3 on cells (human) (UniProt P51654); test: flow cytometry, CHO-human GPC3 cells
[9] = target: recombinant human GPC3 protein (human) (UniProt P51654); test: SPR (Biacore T200), antibody on Protein A chip, GPC3 as analyte
[10] = target: recombinant cynomolgus monkey GPC3 full-length protein (cynomolgus monkey); test: as above
[11] = target: recombinant human GPC3 protein (human) (UniProt P51654); test: BLI (Octet), antibody on Protein A probe; remark: listed apart in the source
[12] = target: human CD3 on T cells (human) (UniProt P07766); test: flow cytometry, human peripheral blood CD4+ T cells
[13] = target: human CD3 on T cells (human) (UniProt P07766); test: flow cytometry, human peripheral blood CD8+ T cells
[14] = target: human CD3 on T cells (human) (UniProt P07766); test: flow cytometry, Jurkat cells

recombinant GST-human GPC3 stem protein (human), sequence (chain, as listed by the source limits assumed, form in doubt): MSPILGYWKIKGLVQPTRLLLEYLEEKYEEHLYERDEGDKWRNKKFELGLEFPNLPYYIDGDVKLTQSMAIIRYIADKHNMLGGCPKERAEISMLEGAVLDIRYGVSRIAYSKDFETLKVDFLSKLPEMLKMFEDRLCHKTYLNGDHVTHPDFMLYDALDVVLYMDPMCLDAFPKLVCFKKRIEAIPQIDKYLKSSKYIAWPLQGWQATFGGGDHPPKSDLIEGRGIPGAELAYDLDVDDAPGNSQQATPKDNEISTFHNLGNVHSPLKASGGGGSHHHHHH

EC50 (read off the curve) [1]: 0.03 nM | EC50 (read off the curve) [2]: 4 nM | pEC50 [3]: 10.13 | pEC50 [4]: 9.80 | pEC50 [5]: 10.22 | pKd [6]: 8.38 | koff [6]: 0.000229 s⁻¹ | kon [6]: 54900 M⁻¹ s⁻¹ | EC50 (read off the curve) [7]: 0.03 nM | pEC50 [8]: 8.56 | pKd [9]: 8.99 | koff [9]: 0.000185 s⁻¹ | kon [9]: 181000 M⁻¹ s⁻¹ | pKd [10]: 8.20 | koff [10]: 0.000429 s⁻¹ | kon [10]: 67200 M⁻¹ s⁻¹ | pKd [11]: 8.87 | koff [11]: 0.000111 s⁻¹ | kon [11]: 82600 M⁻¹ s⁻¹
Substance: GC33 (antibody)

pEC50 [12]: 7.11 | pEC50 [13]: 7.08 | pEC50 [14]: 7.57
Substance: KLH×CD3 (bispecific antibody)

pEC50 [14]: 9.57
Substance: OKT3-hIgG1 (antibody)
